This is an account of results in PMC4110399 (Current Biology, 2014).

The target of experiment [1] is recombinant VPS35/VPS29 complex (wild type) (UniProt Q96QK1 1-796; Q9UBQ0 1-182). Nature of the experiment: ITC; FAM21 R20-21 titrated into the VPS35/VPS29 complex; three experiments for each complex with two independently prepared protein samples; global fitting with SEDPHAT. Conditions: both partners purified.
The target in experiment [2] is recombinant VPS35(D620N)/VPS29 complex (UniProt Q96QK1 1-796; Q9UBQ0 1-182, D620N). Described as above. Conditions: both partners purified.

B1: FAM21 R20-21 fragment (domain or fragment)
chain: KSKKKVEAKSIFDDDMDDIFSTGIQAKTTKPKSRSAQAAPEPRFEHKVSNIFDDPLNAFGGQ
modifications: Limits not printed (construct is in cited ref 16); taken as the C-terminal tail spanning LFa motifs 20-21. The LFa 20/21 positions are recalled from the entry's annotation and not shown in the …
With B1, in experiment [1], the Kd was 2.4 µM and the “stoichiometry N” value was 2 R20-21 per VPS35/VPS29 (by the order of the sentence).

B2: FAM21 R20-21 fragment (domain or fragment)
chain: KSKKKVEAKSIFDDDMDDIFSTGIQAKTTKPKSRSAQAAPEPRFEHKVSNIFDDPLNAFGGQ
Take B2: the Kd in experiment [2] stood at 4.6 µM.
